Common to all, as to experiment: cell-based or functional assay
In assay [1] the target is HIV-1 pseudovirus AC10.0.29 (HIV-1).
Assay [2] deals with HIV-1 pseudovirus SC05.8C11.2344 (HIV-1).
For the next assay, the target named is HIV-1 pseudovirus 263-8 (HIV-1).
The target of assay [3] is HIV-1 pseudovirus X1193_c1 (HIV-1).
Assay [4] addresses HIV-1 pseudovirus 6952.v1.c20 (HIV-1).
The target of assay [5] is HIV-1 pseudovirus Ce1176_A3 (HIV-1).
In assay [6] the target is HIV-1 envelope glycoprotein of pseudovirus 0260.v5.c36 (HIV-1).
Assay [7] concerns the target HIV-1 envelope glycoprotein of pseudovirus BB1012-11.TC21 (HIV-1).
Assay [8] has as its target HIV-1 envelope glycoprotein of pseudovirus DU172.17 (HIV-1).
Assay [9] concerns the target HIV-1 envelope glycoprotein of pseudovirus RHPA4259.7 (HIV-1).
Assay [10] has as its target HIV-1 envelope glycoprotein of pseudovirus SC422661.8 (HIV-1).
Assay [11] has as its target HIV-1 envelope glycoprotein of pseudovirus CNE52 (HIV-1).

Bounds are passed on as bounds.

B1: MS-88 (antibody, V domains shown)
VH: QVQLVQSGPEVRKPGTSVKVSCKASGYTFKTYDLHWVRSVPGQGLQWMGWISHEGDKKVIVERFKAKVTITRDRSTNTAYLQLSGLTSGDTAVYYCAKGSKHRLRDYALYDDDGALNWAVDVDYLSNLEFWGQGTAVTVSS
VL: DFVLTQSPHSLSVTPGESASISCKSSHSLIHGDRNNYLAWYVQKPGRSPQLLIYLASSRASGVPDRFSGSGSDKDFTLKISRVETEDVGTYYCMQGRESPWTFGQGTKVDIKR
As to B1, the “IC50 (neutralization in TZM.bl cells)” value was 0.089 µg/mL in assay [1]; 1.54 µg/mL in assay [2]; 0.111 µg/mL in the assay with HIV-1 pseudovirus 263-8; 0.171 µg/mL in assay [3]; more than 25 µg/mL in [4]; 2.76 µg/mL in assay [5]. For the same molecule, the “IC80 (neutralization in TZM.bl cells)” value in assay [1] was 0.743 µg/mL; in [2] it was 7.31 µg/mL; with HIV-1 pseudovirus 263-8, 0.99 µg/mL; in assay [3], 0.775 µg/mL; in assay [4], more than 25 µg/mL; in assay [5] it was more than 25 µg/mL.

B2: MS-89 (antibody, V domains shown)
VH: QVQLVQSGPEVRKPGTSVKVSCKAPGYTLKTYDLHWVRSVPGQGLQWMGWISHEGDKKVIVERFKAKVTITWDRSTNTAYLQLSGLTSGDTAVYYCAKGSKHRLRDYALYDDDGALNWAVDVDYLSNLEFWGQGTAVTVSS
VL: DFVLTQSPLSLSVTPGESASISCKSSHSLIHGDRNNYLAWYVQKPGRSPQLLIYLASSRASGVPDRFSGSGSDKDFTLKISRVETEDVGTYYCMQGRESPWTFGQGTKVDIKR
For B2, the “IC50 (neutralization in TZM.bl cells)” value in assay [1] was 0.067 µg/mL; in assay [2] it was 0.82 µg/mL; in the assay with HIV-1 pseudovirus 263-8, more than 25 µg/mL; in assay [3], 0.144 µg/mL; in [4] it was more than 25 µg/mL; in [5], 0.298 µg/mL. The “IC80 (neutralization in TZM.bl cells)” value in assay [1] is 0.618 µg/mL; in [2], 3.75 µg/mL; with HIV-1 pseudovirus 263-8, more than 25 µg/mL; in assay [3], 0.636 µg/mL; in assay [4], more than 25 µg/mL; in [5], 9.21 µg/mL.

B3: MS-91 (antibody, V domains shown)
VH: QVQLVQSGPEVRKPGTSVKVSCKASGYTLKTYDLHWVRSVPGQGLQWMGWISHEGDKKVIVERFKAKVTIDWDRSTNTAYLQLSGLTSGDTAVYYCAKGSKHRLRDYALYDDDGALNWAVDVDYLSNLEFWGQGTAVTVSS
VL: DFVLTQSPLSLSVTPGESASISCKSSHSLIHGDRNNYLAWYVQKPGRSPQLLIYLASSRASGVPDRFSGSGSDTDFTLKISRVETEDVGTYYCMQGRESPWTFGQGTKVDIKR
Turning to B3, the “IC50 (neutralization in TZM.bl cells)” value in assay [1] turned out to be 0.07 µg/mL; in assay [2] it was 0.848 µg/mL; with HIV-1 pseudovirus 263-8, 0.02 µg/mL; in assay [3] it was 0.057 µg/mL; in [4], 2.62 µg/mL; in assay [5], 0.213 µg/mL. In addition, the “IC80 (neutralization in TZM.bl cells)” value in [1] was 0.632 µg/mL; in [2], 2.84 µg/mL; in the assay with HIV-1 pseudovirus 263-8, 0.075 µg/mL; in assay [3], 0.388 µg/mL; in [4] it was more than 25 µg/mL; in [5], 2.04 µg/mL.

B4: MS-92 (antibody, V domains shown)
VH: QVQLVQSGPEVRKPGTSVKVSCKAPGNTLKTYDLHWVRSVPGQGLEWMGWISHEGDKKVIVERFKAKVTIDRDRSTNTAYLQLSGLRSGDTAVYYCAKGSKHRLRDYALYDDDGALNWAVDVDYLSNLEFWGQGTAVTVSS
VL: DIVLTQSPHSLSVTPGESASISCKSSHSLIHGDRNNYLAWYVQKPGRSPQLLIYLASSRASGVPDRFSGSGSDKDFTLKISRVETEDVGTYYCMQGRESPWTFGQGTKVDIKR
For the molecule B4, the “IC50 (neutralization in TZM.bl cells)” value in assay [1] was 0.051 µg/mL; in assay [2], 1.54 µg/mL; with HIV-1 pseudovirus 263-8, 0.024 µg/mL; in assay [3], 0.11 µg/mL; in [4], 7.38 µg/mL; in assay [5], 0.6 µg/mL. Besides, the “IC80 (neutralization in TZM.bl cells)” value in assay [1] is 0.446 µg/mL; in assay [2], 4.09 µg/mL; with HIV-1 pseudovirus 263-8, 0.208 µg/mL; in [3], 0.529 µg/mL; in assay [4], more than 25 µg/mL; in assay [5], 9.78 µg/mL.

B5: MS-112 (antibody)
VH: not shown
VL: DFVLTQSPHSLSVTPGEPASISCKSSHSLIHGDRNNYLAWYVQKPGRSPQLLIYLASSRASGVPDRFSGSGSGKDFTLKISRVEAEDVGTYYCMQGRESPWTFGQGTKVDIKRTVAAPSVFIFPPSDEQLKSGTASVVCLLNNFYPREAKVQWKVDNALQSGNSQESVTEQDSKDSTYSLSSTLTLSKADYEKHKVYACEVTHQGLSSPVTKSFNRGEC
Take B5: the “IC50 (neutralization in TZM.bl cells)” value came out at 0.022 µg/mL in [6]; 0.032 µg/mL in assay [7]; 1.77 µg/mL in [8]; 0.195 µg/mL in assay [9]; 0.275 µg/mL in assay [10]; 0.133 µg/mL in assay [11]. The “IC80 (neutralization in TZM.bl cells)” value amounted to 0.059 µg/mL in assay [6]; 0.129 µg/mL in assay [7]; 4.91 µg/mL in assay [8]; 0.661 µg/mL in [9]; 1.44 µg/mL in assay [10]; 1.16 µg/mL in assay [11].

B6: MS-90 (antibody)
VH: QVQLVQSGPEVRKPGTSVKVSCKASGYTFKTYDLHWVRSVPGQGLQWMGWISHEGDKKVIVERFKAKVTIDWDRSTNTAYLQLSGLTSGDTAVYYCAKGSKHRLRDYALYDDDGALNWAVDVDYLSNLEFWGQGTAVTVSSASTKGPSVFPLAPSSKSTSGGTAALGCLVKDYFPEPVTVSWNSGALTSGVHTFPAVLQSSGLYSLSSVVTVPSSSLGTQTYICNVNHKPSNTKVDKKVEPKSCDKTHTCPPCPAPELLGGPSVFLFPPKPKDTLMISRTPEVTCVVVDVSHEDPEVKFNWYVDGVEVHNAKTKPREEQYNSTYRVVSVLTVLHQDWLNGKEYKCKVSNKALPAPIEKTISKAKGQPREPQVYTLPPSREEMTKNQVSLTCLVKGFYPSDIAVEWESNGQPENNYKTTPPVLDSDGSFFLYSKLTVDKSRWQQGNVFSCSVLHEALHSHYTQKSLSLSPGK
VL: DFVLTQSPLSLSVTPGESASISCKSSHSLIHGDRNNYLAWYVQKPGRSPQLLIYLASSRASGVPDRFSGSGSDKDFTLKISRVETEDVGTYYCMQGRESPWTFGQGTKVDIKRTVAAPSVFIFPPSDEQLKSGTASVVCLLNNFYPREAKVQWKVDNALQSGNSQESVTEQDSKDSTYSLSSTLTLSKADYEKHKVYACEVTHQGLSSPVTKSFNRGEC
On to B6, for which the “IC50 (neutralization in TZM.bl cells)” value was determined as 0.059 µg/mL in assay [1]; 1.5 µg/mL in [2]; 0.021 µg/mL in the assay with HIV-1 pseudovirus 263-8; 0.114 µg/mL in assay [3]; 2.68 µg/mL in [4]; 0.22 µg/mL in assay [5]. The “IC80 (neutralization in TZM.bl cells)” value in [1] was 0.592 µg/mL; in assay [2], 3.84 µg/mL; with HIV-1 pseudovirus 263-8, 0.109 µg/mL; in assay [3], 0.399 µg/mL; in assay [4], more than 25 µg/mL; in assay [5], 4.24 µg/mL.

B7: MS-114 (antibody)
VH: not shown
VL: DIVLTQSPLSLSVTPGEPASISCKSSHSLIHGDRNNYLAWYVQKPGRSPQLLIYLASSRASGVPDRFSGSGSDKDFTLKISRVEAEDVGTYYCMQGRESPWTFGQGTKVDIKRTVAAPSVFIFPPSDEQLKSGTASVVCLLNNFYPREAKVQWKVDNALQSGNSQESVTEQDSKDSTYSLSSTLTLSKADYEKHKVYACEVTHQGLSSPVTKSFNRGEC
As for B7, the “IC50 (neutralization in TZM.bl cells)” value was found to be 0.03 µg/mL in [6]; 0.033 µg/mL in [7]; 1.66 µg/mL in assay [8]; 0.237 µg/mL in [9]; 0.236 µg/mL in assay [10]; 0.444 µg/mL in assay [11]. Besides, the “IC80 (neutralization in TZM.bl cells)” value in [6] was found to be 0.105 µg/mL; in [7], 0.136 µg/mL; in [8], 7.74 µg/mL; in assay [9] it was 1.24 µg/mL; in [10] it was 2.21 µg/mL; in assay [11], 3.61 µg/mL.

B8: MS-113 (antibody)
VH: not shown
VL: DIVLTQSPLSLSVTPGEPASISCKSSHSLIHGDRNNYLAWYVQKPGRSPQLLIYLASSRASGVPDRFSGSGSGKDFTLKISRVETEDVGTYYCMQGRESPWTFGQGTKVDIKRTVAAPSVFIFPPSDEQLKSGTASVVCLLNNFYPREAKVQWKVDNALQSGNSQESVTEQDSKDSTYSLSSTLTLSKADYEKHKVYACEVTHQGLSSPVTKSFNRGEC
For B8, the “IC50 (neutralization in TZM.bl cells)” value stood at 0.026 µg/mL in assay [6]; 0.026 µg/mL in assay [7]; 2.22 µg/mL in assay [8]; 0.206 µg/mL in [9]; 0.354 µg/mL in assay [10]; 0.502 µg/mL in assay [11]. Further, the “IC80 (neutralization in TZM.bl cells)” value in assay [6] was 0.092 µg/mL; in assay [7], 0.109 µg/mL; in assay [8] it was 8.27 µg/mL; in assay [9], 0.696 µg/mL; in assay [10], 2.12 µg/mL; in [11] it was 5.04 µg/mL.

These data come from patent publication US20220025021A1 (BETH ISRAEL DEACONESS MEDICAL CENTER, published 2022).
